Reference: patent US20220119523A1, “TREATMENT OF CUTANEOUS T CELL LYMPHOMA WITH TARGETING OF CD47 PATHWAY” (The Board of Trustees of the Leland Stanford Junior …, priority 2019, published 2022)

Key:
[1] = test system: newly diagnosed AML patients 65 years or older; conditions: 75 mg/m^2 per day SC for 7 consecutive days per 28-day cycle, at least 6 cycles; conventional care regimens 6.5 months; cited from earlier work
[2] = test system: HH; experiment: In vitro phagocytosis assay, HH cell line; format: cell-based, human; conditions: HH cells; macrophage from NOD scid gamma mice (NSG); vs IgG4 control antibody; FIG. 2A-2B
Method: (§1) Cancer Cells. HH (CTCL lymphoblast ATCC); HuT78 (Sezary Syndrome CTCL, ATCC); HuT102 (Mycosis Fungoides CTCL, ATCC); and MJ (Mycosis Fungoides CTCL, ATCC) were cultured in RPMI (ThermoFisher S.) (DLD1), EMEM (ThermoFisher S.) (CACO-2, LS174T), McCoy's 5A (ThermoFisher S.) (HT29, HCT116), or Leibovitz's L-15 (ThermoFisher S.) (SW48, SW 620) supplemented with 10% fetal bovine serum (Omega Scientific), 100 U/mL penicillin and 100 μg/mL streptomycin (ThermoFisher S.)
In Vitro Phagocytosis Assay. Peripheral blood mononuclear cells were enriched by density gradient centrifugation and monocytes were purified with anti-CD14 microbeads (Miltenyi) and differentiated to macrophages by culture for 7-10 days in IMDM+GlutaMax (Invitrogen) supplemented with 10% AB-Human Serum (Invitrogen) and 100 U/mL penicillin and 100 μg/mL streptomycin (Invitrogen). Phagocytosis assays were performed by co-culture of 50,000 macrophages with 100,000 CTCL tumor cells for 2 hours, then analyzed using an LSRFortessa cell analyzer with high throughput sampler (BD Biosciences). Antibodies used for treatment included: IgG4 isotype control, anti-CD47—clone magrolimab (Stanford). Macrophages were identified by flow cytometry using anti-CD206 antibody. […] Phagocytosis was evaluated as the percentage of GFP+ macrophages and was normalized to the maximal response by each independent donor against each cell line.

[3] = test system: HuT78 tumor cells; experiment: Xenograft tumor model, HuT78 cells in NSG mice; format: in vivo; conditions: 250 μg intraperitoneal every other day, vs PBS
Method: (§2) Mice. 6-8 week old NSG (NOD.Cg-Prkdcscid Il2rgtm1Wjl/SzJ) mice were used.
(§3) Xenograft Tumor Models. […] For all treatments, antibodies where administered by intraperitoneal injection (100 μl) as follows: PBS and […] (250 μg) every other day. Tumor volume and survival was monitored.

[4] = test system: CTCL tumor cells; experiment: In vitro phagocytosis assay, co-culture of macrophages with CTCL tumor cells; format: cell-based, human; conditions: for phagocytosis (percentage of GFP+ macrophages): 2 hours co-culture
Method: as §1
In Vitro Phagocytosis Assay. Peripheral blood mononuclear cells were enriched by density gradient centrifugation and monocytes were purified with anti-CD14 microbeads (Miltenyi) and differentiated to macrophages by culture for 7-10 days in IMDM+GlutaMax (Invitrogen) supplemented with 10% AB-Human Serum (Invitrogen) and 100 U/mL penicillin and 100 μg/mL streptomycin (Invitrogen). Phagocytosis assays were performed by co-culture of 50,000 macrophages with 100,000 CTCL tumor cells for 2 hours, then analyzed using an LSRFortessa cell analyzer with high throughput sampler (BD Biosciences). Antibodies used for treatment included: IgG4 isotype control, anti-CD47—clone magrolimab (Stanford). Macrophages were identified by flow cytometry using anti-CD206 antibody. Dead cells were excluded from the analysis by staining with DAPI (Sigma). Phagocytosis was evaluated as the percentage of GFP+ macrophages and was normalized to the maximal response by each independent donor against each cell line.

[5] = test system: HUT78; experiment: In vitro phagocytosis assay, HUT78 cell line; format: cell-based, human; conditions: HUT78 cells; macrophage from NOD scid gamma mice (NSG); vs IgG4 control antibody; FIG. 2A-2B
[6] = test system: HH tumor cells; experiment: Xenograft tumor model, HH cells in NSG mice; format: in vivo; conditions: 250 μg intraperitoneal every other day, vs PBS
Method: as §2, §3

Nc1ncn([C@@H]2O[C@H](CO)[C@@H](O)[C@H]2O)c(=O)n1 [azacitidine]
Median OS [1]: 10.4 months

B1: Magrolimab: monoclonal antibody designed to block CD47; specifically binds human CD47; humanized 5F9 with IgG4 (antibody, chains of the INN, looked up, V domains shown)
VH: QVQLVQSGAEVKKPGASVKVSCKASGYTFTNYNMHWVRQAPGQRLEWMGTIYPGNDDTSYNQKFKDRVTITADTSASTAYMELSSLRSEDTAVYYCARGGYRAMDYWGQGTLVTVSS
VL: DIVMTQSPLSLPVTPGEPASISCRSSQSIVYSNGNTYLGWYLQKPGQSPQLLIYKVSNRFSGVPDRFSGSGSGTDFTLKISRVEAEDVGVYYCFQGSHVPYTFGQGTKLEIK
phagocytosis (percent of phagocytosis / percent of maximum phagocytosis) [2]: increased phagocytosis | tumor volume ([3]; FIG. 5A): reduced | survival ([3]; FIG. 5B): improved | phagocytosis (percentage of GFP+ macrophages) ([4]; human macrophages (FIG. 2B)): significant increase in phagocytosis | phagocytosis (percentage of GFP+ macrophages) ([4]; mouse macrophages (FIG. 2A)): significant increase in phagocytosis | phagocytosis (percent of phagocytosis / percent of maximum phagocytosis) [5]: increased phagocytosis | tumor volume ([6]; FIG. 4A): reduced | survival ([6]; FIG. 4B): improved

B2: anti-CCR4: antibody that corresponds to mogamulizumab, a defucosylated anti-CCR4 humanized IgG1 antibody binding the N-terminal domain of CCR4 (antibody, chains of the INN, looked up, V domains shown)
VH: EVQLVESGGDLVQPGRSLRLSCAASGFIFSNYGMSWVRQAPGKGLEWVATISSASTYSYYPDSVKGRFTISRDNAKNSLYLQMNSLRVEDTALYYCGRHSDGNFAFGYWGQGTLVTVSS
VL: DVLMTQSPLSLPVTPGEPASISCRSSRNIVHINGDTYLEWYLQKPGQSPQLLIYKVSNRFSGVPDRFSGSGSGTDFTLKISRVEAEDVGVYYCFQGSLLPWTFGQGTKVEIK
phagocytosis, combination of anti-CD47 and anti-CCR4 ([4]; FIG. 3A-3B, combined antibodies): synergizes with anti-CD47 antibody | phagocytosis, antibody by itself ([4]; FIG. 3A-3B, single agent): little or no effect on phagocytosis
